Assay results reported in US20210206877A1 (Genentech, published 2021).
Numbering of substitutions follows the chain as printed. Read-outs that look alike come from different tables or passages of the source.

B1: 5644 (antibody, V domains shown)
VH: QLQLQESGPGLVKPSETLSLTCTVSGGSISSSSYYWGWIRQPPGKGLEWIGSIYYSGSTYYNPSLKSRVTISVDTSKNQFSLKLSSVTAADTAVYYCARVGHGISYFDLWGRGTLVTVSS
VL: EIVLTQSPATLSLSPGERATLSCRASQSVSSYLAWYQQKPGQAPRLLIYDASKRATGIPARFSGSGSGTDFTLTISSLEPEDFAVYYCQQVYTWPPRTFGGGTKVEIK
B2: 6311 (antibody, V domains shown)
VH: B1 VH with S31W, G37S, Y55R, S58R, S105N
VL: B1 VL with K53N, V91S, Y92L
B3: 6309 (antibody, V domains shown)
VH: B1 VH with S31W, G37S, Y55R, S58R, S105N
VL: B1 VL with K53N, V91S, Y92I
B4: 6310 (antibody, V domains shown)
VH: B1 VH with S31W, G37S, Y55R, S58R, S105N
VL: B1 VL with K53N, V91S, Y92V
B5: 5896 (antibody, V domains shown)
VH: B1 VH with Y55R
VL: B1 VL with K53N, V91S, Y92L
B6: 6315 (antibody, V domains shown)
VH: B1 VH with S31R, S32G, S52M, Y60W, I104V
VL: B1 VL with V91S, Y92L, T93V, T103A
B7: 5897 (antibody, V domains shown)
VH: B1 VH with S31W, G37S, Y55K, S58R
VL: B1 VL with K53N, V91S, Y92L
B8: 6313 (antibody, V domains shown)
VH: B1 VH with S31R, S32G, S52M, Y60W, I104V
VL: B1 VL with K53N, V91A, T93V
B9: 6307 (antibody, V domains shown)
VH: B1 VH with S31W, G37S, Y55R, S58R, S67G, S105N
VL: B1 VL with K53N, V91S, Y92I, T93V
B10: 6308 (antibody, V domains shown)
VH: B1 VH with S31W, G37S, Y55R, S58R, S105N
VL: B1 VL with V91S, Y92L, T93V
B11: 5903 (antibody, V domains shown)
VH: B1 VH with S52M, Y60W
VL: B1 VL
B12: 5905 (antibody, V domains shown)
VH: B1 VH with S31W, G37S, Y55R, S58R
VL: B1 VL
B13: 6314 (antibody, V domains shown)
VH: B1 VH with S31R, S32G, S52M, Y60W, I104V
VL: B1 VL with K53N, V91S, Y92I, T93V
B14: antibody 6266 (antibody, V domains shown)
VH: EVQLVQSGAEVKKPGSSVKVSCKASGGTLSGYGVSWVRQAPGQGLEWMGNIIPGFGTANYAQKFQGRVTITADESTSTAYMELSSLRSEDTAVYYCARSGGTKYGMLDVWGQGTMVTVSS
VL: EIVMTQSPATLSVSPGERATLSCRASQSVSSNLAWYQQKPGQAPRLLIYGASTRATGIPARFSGSGSGTEFTLTISSLQSEDFAVYYCQQLILWPPRTFGGGTKVEIK
B15: 5894 (antibody, V domains shown)
VH: B14 VH with E1Q, L29F, G33A, V34I
VL: B14 VL with S30G, I92Y, L93T
B16: 6300 (antibody, V domains shown)
VH: B14 VH with E1Q, G33A, V34I, F64S, K103R
VL: B14 VL with M4L, S30G, L91S, I92F
B17: 5892 (antibody, V domains shown)
VH: B14 VH with E1Q, L29F, G31S, G33A, V34I, G54I, N59T
VL: B14 VL with S30G, I92Y, L93T
B18: 5893 (antibody, V domains shown)
VH: B14 VH with E1Q, L29F, S30R, G33A, V34I
VL: B14 VL with S30G, I92Y, L93T
B19: 6303 (antibody, V domains shown)
VH: B14 VH with E1Q, G33A, V34I, F64S, K103R
VL: B14 VL with Y49F, I92L, L93T
B20: 5891 (antibody, V domains shown)
VH: B14 VH with E1Q, L29F, G31S, G33A, V34I, G54I, T57P
VL: B14 VL with S30G, I92Y, L93T
B21: 5890 (antibody, V domains shown)
VH: B14 VH with E1Q, L29F, G31S, G33A, V34I
VL: B14 VL with S30G, I92Y, L93T
B22: 5888 (antibody, V domains shown)
VH: B14 VH with E1Q, L29F, S30W, G31K, G33A, V34I, Q65R
VL: B14 VL
B23: 6305 (antibody, V domains shown)
VH: B14 VH with E1Q, G33A, V34I, F64S, K103R
VL: B14 VL with M4L, S30G, L91S, I92F, L93V
B24: 6299 (antibody, V domains shown)
VH: B14 VH with E1Q, G33A, V34I, F64S, K103R
VL: B14 VL with S30G, L91S, I92Y

How the values were obtained:
Experiment in all cases: cell-based or functional assay
[1] = target: T1, BACE1 ECD (as used in the enzyme activity assay) (UniProt P56817 22-457, limits assumed)
[2] = target: T2, BACE1 endogenous to primary cortical neurons from E16.5 CD1 mice (mouse, UniProt P56818 46-501)
murine BACE1 ECD = target: murine BACE1 ECD
human BACE1 ECD = human BACE1 ECD (human, UniProt P56817)
[3] = target: T2, BACE1 endogenous to primary cortical …; remark: listed apart in the source
[4] = target: T1, BACE1 ECD (as used in the enzyme …); remark: listed apart in the source
[5] = target: T2, BACE1 endogenous to primary cortical …; remark: listed apart in the source
[6] = target: T2, BACE1 endogenous to primary cortical …; remark: listed apart in the source
Wherever % inhibition, FRET short substrate assay (negative = activation) is given: test concentration or dose not given here.

T2 sequence (P56818 46-501): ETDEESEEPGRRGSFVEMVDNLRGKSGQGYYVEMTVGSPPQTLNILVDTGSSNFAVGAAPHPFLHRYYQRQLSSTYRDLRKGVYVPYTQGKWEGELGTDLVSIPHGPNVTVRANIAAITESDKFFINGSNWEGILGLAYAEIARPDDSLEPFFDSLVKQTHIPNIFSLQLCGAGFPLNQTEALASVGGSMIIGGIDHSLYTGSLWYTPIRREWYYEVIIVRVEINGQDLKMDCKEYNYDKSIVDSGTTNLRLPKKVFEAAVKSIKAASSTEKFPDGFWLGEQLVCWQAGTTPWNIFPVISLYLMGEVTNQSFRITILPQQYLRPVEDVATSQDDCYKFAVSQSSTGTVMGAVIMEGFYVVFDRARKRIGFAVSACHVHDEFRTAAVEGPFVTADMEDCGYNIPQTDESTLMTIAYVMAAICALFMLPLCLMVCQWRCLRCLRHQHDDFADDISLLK
T1 sequence (P56817 22-457 limits assumed): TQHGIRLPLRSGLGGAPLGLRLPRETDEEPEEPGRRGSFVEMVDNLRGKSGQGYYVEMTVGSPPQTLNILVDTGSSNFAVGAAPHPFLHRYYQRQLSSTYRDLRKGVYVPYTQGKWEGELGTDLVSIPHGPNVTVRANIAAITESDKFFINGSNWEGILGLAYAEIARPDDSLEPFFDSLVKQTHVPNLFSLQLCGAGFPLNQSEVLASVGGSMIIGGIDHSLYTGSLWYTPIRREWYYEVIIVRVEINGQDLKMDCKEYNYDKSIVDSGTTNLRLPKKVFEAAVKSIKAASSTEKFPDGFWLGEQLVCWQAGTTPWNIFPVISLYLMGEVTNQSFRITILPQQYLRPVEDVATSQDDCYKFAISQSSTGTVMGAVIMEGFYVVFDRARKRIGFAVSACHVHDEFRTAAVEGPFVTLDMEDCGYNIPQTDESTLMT
Chain of human BACE1 ECD (P56817 22-457): as the sequence (P56817 22-457 limits assumed) above
Chain of murine BACE1 ECD (single chain, as listed by the source limits assumed): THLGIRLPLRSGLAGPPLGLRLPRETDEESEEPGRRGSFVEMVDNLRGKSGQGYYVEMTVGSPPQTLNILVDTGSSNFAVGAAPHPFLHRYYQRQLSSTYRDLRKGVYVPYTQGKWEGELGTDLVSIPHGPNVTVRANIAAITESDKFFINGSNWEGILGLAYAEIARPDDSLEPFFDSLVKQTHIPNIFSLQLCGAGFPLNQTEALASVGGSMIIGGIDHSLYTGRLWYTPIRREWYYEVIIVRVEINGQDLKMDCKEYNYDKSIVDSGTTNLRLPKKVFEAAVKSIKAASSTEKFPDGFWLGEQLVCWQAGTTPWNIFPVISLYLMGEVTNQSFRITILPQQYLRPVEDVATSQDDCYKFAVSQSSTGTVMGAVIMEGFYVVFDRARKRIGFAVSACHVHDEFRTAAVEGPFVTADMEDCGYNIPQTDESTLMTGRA

Binder | max % inhibition, Abeta x-40 in mouse cortical neurons [2] [%] | % inhibition, FRET short substrate assay (negative = activation) (murine BACE1 ECD) [%] | % inhibition, FRET short substrate assay (negative = activation) (human BACE1 ECD) [%] | max % inhibition, Abeta x-40 in mouse cortical neurons [3] [%] | EC50, FRET short substrate assay [4] [nM] | EC50, HTRF long substrate assay [4] [nM] | other results
B1 | 72 | 63 | 65 | – | – | – | EC50, FRET short substrate assay [1]: 8.47 nM; EC50, HTRF long substrate assay [1]: 8.75 nM
B2 | – | – | – | 63 | – | – | –
B3 | – | – | – | 60 | – | – | –
B4 | – | – | – | 71 | – | – | –
B5 | 65 | -3 | -4 | – | 3.35 | 3.46 | IC50, Abeta x-40 in mouse cortical neurons (row 5896*, second run) [2]: 5.72 nM
B6 | – | – | – | 73 | – | – | –
B7 | 62 | -3 | 1 | – | 0.528 | 1.39 | –
B8 | – | – | – | 67 | – | – | –
B9 | – | – | – | 68 | – | – | –
B10 | – | – | – | 60 | – | – | –
B11 | – | – | – | – | 3.12 | 1.38 | IC50, Abeta x-40 in mouse cortical neurons (row 5903*, second run) [5]: 7.27 nM; max % inhibition, Abeta x-40 in mouse cortical neurons [5]: 72%
B12 | – | 72 | 65 | – | 1.33 | 3.91 | IC50, Abeta x-40 in mouse cortical neurons (row 5905*, second run) [5]: 0.83 nM; max % inhibition, Abeta x-40 in mouse cortical neurons [5]: 65%
B13 | – | – | – | 71 | – | – | –
B14 | – | – | – | – | – | – | max % inhibition, Abeta x-40 in mouse cortical neurons [5]: 87%; IC50, inhibition of Aβx-40 production in primary mouse cortical neuron cultures (sandwich ELISA of supernatants) [6]: 1.7 nM
B15 | 78 | 69 | 69 | – | 8.58 | 1.79 | IC50, Abeta x-40 in mouse cortical neurons (row 5894*, second run) [2]: 5.43 nM
B16 | – | – | – | 71 | – | – | –
B17 | 73 | 64 | 64 | – | 16.4 | 1.19 | –
B18 | 73 | 69 | 72 | – | 8.84 | 3.59 | –
B19 | – | – | – | 76 | – | – | –
B20 | 78 | 70 | 71 | – | 12.4 | 3.03 | –
B21 | 77 | 69 | 66 | – | 32.4 | 4.06 | –
B22 | 82 | -183 | -86 | – | 0.602 | 2.5 | –
B23 | – | – | – | 67 | – | – | –
B24 | – | – | – | 70 | – | – | –
